Data on one molecule can be found in paper PMC12097070 (Advanced Science, 2025).

Holding throughout (conditions): both partners purified
One experiment has as its target T1, mouse GRP78 (mGRP78) (Mus musculus (Mouse)., UniProt P20029).
T1 construct: also called murine GRP78
Description: ELISA; hGRP78 or mGRP78 (10 µg mL^-1) immobilised on plates overnight at 4 °C; blocked with 3% BSA/PBS; serially diluted HA‐tagged Nbs 1 h at RT; HRP anti‐HA; OD450.

In the next experiment the target is BSA protein (Bos taurus (Bovine)., UniProt P02769). Description: ELISA; Nbs tested on BSA protein (Figure S7); details not shown. For orientation: ELISA stands for enzyme-linked immunosorbent assay.
The target in experiment [1] is T2, human glucose‐regulated protein 78 (hGRP78), full-length (Homo sapiens (Human)., UniProt P11021).
T2 construct: also called BiP; HSPA5
Nature of the experiment: SPR; Biacore T100; […] (10 µg mL^-1) […]; association 120 s, dissociation 300 s; […]. In general terms: Surface plasmon resonance follows binding to a sensor surface in real time, without labels.

T2 sequence (P11021 19-654): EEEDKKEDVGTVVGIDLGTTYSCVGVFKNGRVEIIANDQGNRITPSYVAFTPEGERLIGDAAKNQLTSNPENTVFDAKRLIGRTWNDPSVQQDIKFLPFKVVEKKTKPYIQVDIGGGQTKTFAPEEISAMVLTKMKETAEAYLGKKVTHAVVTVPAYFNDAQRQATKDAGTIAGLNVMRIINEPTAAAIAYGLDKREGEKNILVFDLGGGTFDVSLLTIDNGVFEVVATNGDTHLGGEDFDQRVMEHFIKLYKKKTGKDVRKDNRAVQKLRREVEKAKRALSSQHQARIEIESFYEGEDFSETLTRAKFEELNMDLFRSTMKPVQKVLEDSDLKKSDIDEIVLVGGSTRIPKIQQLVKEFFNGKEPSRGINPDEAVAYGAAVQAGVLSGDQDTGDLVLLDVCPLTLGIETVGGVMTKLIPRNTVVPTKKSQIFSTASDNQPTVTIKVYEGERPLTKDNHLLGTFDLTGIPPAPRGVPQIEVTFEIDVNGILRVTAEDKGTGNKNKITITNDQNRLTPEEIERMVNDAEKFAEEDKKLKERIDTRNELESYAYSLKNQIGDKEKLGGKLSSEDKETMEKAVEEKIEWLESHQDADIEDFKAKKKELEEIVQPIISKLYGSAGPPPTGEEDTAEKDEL
BSA protein, sequence (P02769 25-607): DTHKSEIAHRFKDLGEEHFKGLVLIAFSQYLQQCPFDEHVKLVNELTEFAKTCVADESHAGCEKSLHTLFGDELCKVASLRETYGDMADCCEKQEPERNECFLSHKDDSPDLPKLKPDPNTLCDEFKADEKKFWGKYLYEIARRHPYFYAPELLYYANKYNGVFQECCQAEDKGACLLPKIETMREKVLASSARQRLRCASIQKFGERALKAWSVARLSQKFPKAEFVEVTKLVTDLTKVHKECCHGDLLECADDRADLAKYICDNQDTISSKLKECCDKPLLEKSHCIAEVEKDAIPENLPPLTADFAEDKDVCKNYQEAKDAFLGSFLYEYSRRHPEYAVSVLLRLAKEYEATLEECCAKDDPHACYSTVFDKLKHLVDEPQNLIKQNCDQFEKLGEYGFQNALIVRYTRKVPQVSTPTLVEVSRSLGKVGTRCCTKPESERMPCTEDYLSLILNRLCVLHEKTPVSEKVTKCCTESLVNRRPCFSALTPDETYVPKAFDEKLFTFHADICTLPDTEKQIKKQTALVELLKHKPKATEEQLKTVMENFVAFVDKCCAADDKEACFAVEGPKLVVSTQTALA
T1 sequence (P20029 20-655): as the sequence (P11021 19-654) above, with Y295F, A620G, A631S counted along it

B1: Nb NBD1 (VHH)
VHH: AVQLVESGGGSVQAGGSLTLSCAASINTGNPALVGWYRQAPGKQREMVAMISISGNTNYAPSVKGRFTISRDNANKTIFLQMNSLTPEDTAVYYCKKLPFGSWGQGTQVTVSS
notes: source: E. coli BL21 (DE3), purified (Ni‐NTA, AKTA Pure System)
A word on the Kd: it is the equilibrium constant for the complex coming apart. A higher Kd goes with a looser complex. With B1, the results for the binding result with mouse GRP78 (mGRP78) and with BSA protein were “binds” and “no binding”, respectively. In experiment [1], this molecule had a Kd of 3.4 nM.
